Source: the supplement of paper PMC9876800

Test system: peptide library, one residue held at a place counted from the S/T acceptor
Experiment: relative phosphorylation of the sub-library (ratio to the mean residue at this position); higher = residue favoured
Details: human
Procedure, shortened: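 In 384-well plates, purified recombinant kinases (human or orthologue constructs) were incubated for 90 min under kinase-specific conditions with 50 μM biotinylated degenerate peptide sub-libraries and 50 μM ATP spiked with γ-32P-ATP. Each sub-library fixed a single residue at one position around a central Ser/Thr. Relative sub-library phosphorylation, measured by phosphorimaging and densitometry of streptavidin membrane spots, is given as a ratio to the mean residue at that position.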

Chain of CAMK2G, construct: aa24-334 (Q13555 24-334, looked up): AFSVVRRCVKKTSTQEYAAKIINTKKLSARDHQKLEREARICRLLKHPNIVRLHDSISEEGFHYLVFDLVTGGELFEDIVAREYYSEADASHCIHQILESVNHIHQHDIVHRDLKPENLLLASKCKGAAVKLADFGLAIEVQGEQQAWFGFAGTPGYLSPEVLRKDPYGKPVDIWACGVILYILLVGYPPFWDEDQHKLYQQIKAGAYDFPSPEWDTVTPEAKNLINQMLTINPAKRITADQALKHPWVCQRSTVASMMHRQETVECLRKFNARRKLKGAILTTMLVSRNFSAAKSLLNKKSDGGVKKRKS

DYRK3, construct: Full length (from UniProt O43781)
relative phosphorylation
Details | at +1 | at +2 | at +3 | at +4 | at -1 | at -2 | at -3 | at -4 | at -5
A fixed | 0.74 | 0.843 | 0.891 | 0.767 | 1.14 | 1.24 | 0.635 | 0.856 | 0.845
D fixed | 0.16 | 0.894 | 0.621 | 0.723 | 0.447 | 0.181 | 0.404 | 0.698 | 0.663
E fixed | 0.175 | 0.758 | 0.613 | 0.713 | 0.554 | 0.207 | 0.368 | 0.747 | 0.656
F fixed | 0.266 | 1.19 | 1.12 | 1.31 | 0.777 | 0.378 | 0.422 | 0.876 | 1.07
G fixed | 0.732 | 0.679 | 1.47 | 1.07 | 1.13 | 0.719 | 1.59 | 1.01 | 0.936
H fixed | 0.3 | 1.2 | 1.27 | 1.16 | 0.991 | 0.556 | 0.621 | 0.945 | 1.12
I fixed | 0.513 | 1.33 | 0.817 | 0.973 | 0.709 | 0.643 | 0.418 | 0.905 | 1.05
K fixed | 0.494 | 0.7 | 0.727 | 0.926 | 1.42 | 0.746 | 0.92 | 1.1 | 1.11
L fixed | 0.329 | 1.41 | 1.23 | 0.916 | 0.882 | 0.651 | 0.444 | 0.887 | 0.892
M fixed | 0.337 | 1.41 | 1.21 | 1.35 | 1.22 | 0.67 | 0.467 | 0.903 | 0.84
N fixed | 0.289 | 0.883 | 0.777 | 0.919 | 0.783 | 0.555 | 0.473 | 0.71 | 0.809
P fixed | 8.02 | 0.703 | 1.93 | 0.889 | 1.27 | 1.93 | 0.514 | 0.886 | 0.898
Q fixed | 0.442 | 0.889 | 0.834 | 0.932 | 1 | 0.583 | 0.518 | 0.688 | 0.742
R fixed | 2.71 | 1.05 | 1.09 | 1.13 | 2.12 | 6.5 | 7.91 | 3.23 | 2.49
V fixed | 0.987 | 1.1 | 0.661 | 0.785 | 0.726 | 0.724 | 0.357 | 0.664 | 0.716
W fixed | 0.257 | 0.91 | 0.887 | 1.38 | 0.64 | 0.386 | 0.473 | 0.964 | 0.942
Y fixed | 0.242 | 1.04 | 0.858 | 1.06 | 1.18 | 0.336 | 0.473 | 0.928 | 1.21
pThr fixed | 0.328 | 1.44 | 0.549 | 0.977 | 0.353 | 0.349 | 0.492 | 0.812 | 0.954
pTyr fixed | 0.363 | 0.759 | 0.769 | 0.815 | 0.735 | 0.287 | 0.542 | 0.74 | 1.15

CAMK2G, construct: aa24-334 (from UniProt Q13555)
relative phosphorylation
Details | at +1 | at +2 | at +3 | at +4 | at -1 | at -2 | at -3 | at -4 | at -5
A fixed | 0.737 | 0.749 | 0.902 | 0.943 | 0.933 | 0.991 | 0.897 | 0.98 | 1
D fixed | 0.862 | 3.95 | 1.64 | 1.87 | 1.41 | 1.02 | 0.898 | 1.07 | 1.13
E fixed | 0.878 | 2.06 | 2.04 | 1.99 | 1.26 | 0.887 | 0.9 | 1.04 | 1.12
F fixed | 2.53 | 0.723 | 0.818 | 0.816 | 0.913 | 1.25 | 1.27 | 0.987 | 0.991
G fixed | 0.709 | 0.692 | 0.983 | 1.02 | 0.953 | 1.07 | 0.829 | 0.974 | 0.971
H fixed | 0.814 | 0.784 | 0.979 | 0.903 | 0.897 | 1.25 | 1.06 | 1.14 | 1.19
I fixed | 1.14 | 0.712 | 0.879 | 0.814 | 0.855 | 0.775 | 0.918 | 0.924 | 0.855
K fixed | 0.824 | 0.705 | 0.863 | 0.785 | 1.1 | 0.889 | 0.945 | 0.946 | 1.09
L fixed | 1.01 | 0.675 | 0.907 | 0.812 | 0.965 | 0.795 | 0.916 | 0.894 | 0.953
M fixed | 1.43 | 0.696 | 0.855 | 0.785 | 0.944 | 0.841 | 1.04 | 0.903 | 0.871
N fixed | 0.813 | 0.92 | 0.943 | 0.91 | 1.05 | 1.17 | 1.04 | 1.07 | 1.02
P fixed | 0.675 | 0.64 | 0.708 | 0.948 | 0.78 | 0.705 | 0.871 | 0.896 | 0.864
Q fixed | 0.959 | 0.773 | 0.98 | 0.911 | 1.07 | 1 | 0.982 | 0.96 | 0.916
R fixed | 0.841 | 0.72 | 0.833 | 0.764 | 1.11 | 0.963 | 1.14 | 0.906 | 1
V fixed | 1.02 | 0.729 | 0.888 | 0.85 | 0.912 | 0.805 | 0.829 | 0.883 | 0.963
W fixed | 0.776 | 0.74 | 0.877 | 1.01 | 0.919 | 1.41 | 1.33 | 1.37 | 1.13
Y fixed | 0.984 | 0.728 | 0.907 | 0.881 | 0.933 | 1.18 | 1.14 | 1.05 | 0.938
pThr fixed | 1.09 | 1.16 | 1.78 | 2.53 | 1.25 | 1 | 0.985 | 1.11 | 1
pTyr fixed | 1.23 | 4.79 | 1.69 | 2.15 | 1.63 | 1.11 | 1.11 | 1.1 | 1.02
